Measured values reported in patent US9266964.

Legend:
human plasma kallikrein [1] = target: T1, human plasma kallikrein (human, UniProt P03952 20-390; P03952 391-638); assay: apparent inhibition constant (Ki,app) against human pKal, enzyme inhibition
T1 construct: also called pKal; human pKal
T1 sequence (P03952 20-390, chain 1 of 2): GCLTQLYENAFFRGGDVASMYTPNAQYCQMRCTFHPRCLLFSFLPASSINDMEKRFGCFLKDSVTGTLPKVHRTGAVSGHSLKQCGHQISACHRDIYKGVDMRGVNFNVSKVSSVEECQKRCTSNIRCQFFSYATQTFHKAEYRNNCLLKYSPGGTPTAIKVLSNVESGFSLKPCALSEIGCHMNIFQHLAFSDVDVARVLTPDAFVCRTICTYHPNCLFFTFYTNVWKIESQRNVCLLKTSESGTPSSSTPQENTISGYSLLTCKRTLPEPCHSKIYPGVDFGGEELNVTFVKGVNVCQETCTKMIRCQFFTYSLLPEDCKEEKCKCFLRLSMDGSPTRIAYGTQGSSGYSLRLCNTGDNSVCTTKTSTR
T1 sequence (P03952 391-638, chain 2 of 2): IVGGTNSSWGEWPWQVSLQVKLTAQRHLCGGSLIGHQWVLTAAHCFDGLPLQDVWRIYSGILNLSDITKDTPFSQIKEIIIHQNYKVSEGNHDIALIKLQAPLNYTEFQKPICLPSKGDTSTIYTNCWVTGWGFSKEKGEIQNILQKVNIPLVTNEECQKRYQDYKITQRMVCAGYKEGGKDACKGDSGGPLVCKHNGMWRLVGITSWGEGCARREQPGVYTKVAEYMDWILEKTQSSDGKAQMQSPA

human plasma kallikrein [2] = target: T1, human plasma kallikrein; assay: ELISA, biotinylated plasma kallikrein coated on microtiter plate, signal divided by streptavidin background
Text: Abbreviations used: "T/B" is the ELISA signal obtained using of the "target" (biotinylated plasma kallikrein) divided by the ELISA signal of the "background" (streptavidin); both of which were coated on microtiter plates. "nd" is not determined. The symbol "q" refers to the amber suppressible stop codon (TAG), which is translated as glutamine (Q) in strains of *E. coli* such as the TG1 cells that were used to express the Fab fragments.

human plasma kallikrein [3] = target: T2, human plasma kallikrein (human, UniProt P03952 20-390; P03952 391-638); assay: cell-based or functional assay
T2 sequence (P03952 20-390, chain 1 of 2): as the sequence (P03952 20-390, chain 1 of 2) above
T2 sequence (P03952 391-638, chain 2 of 2): as the sequence (P03952 391-638, chain 2 of 2) above

human plasma kallikrein [4] = target: T2, human plasma kallikrein; assay: Ki,app, inhibition of human pKal enzyme activity

Binder | Ki (human plasma kallikrein [1]) [nM] | Human pKal ELISA (T/B) (human plasma kallikrein [2]) | % inhibition at 10 nM (human plasma kallikrein [3]) [%] | Ki (human plasma kallikrein [4]) [nM]
M161-C11 (Fab, V domains shown, Printed HC runs from VH into the start of CH1) VH: EVQLLESGGGLVQPGGSLRLSCAASGFTFSDYAMKWVRQAPGKGLEWVSSISSSGGVTQYADSVKGRFTISRDNSKNTLYLQMNSLRAEDTAVYYCAREEDYSSSWYSRRFDYYYGMDVWGQGTTVTVSS VL: QSALTQPPSVSVSPGQTASITCSGDKLGDKYVSWYQQRPGQSPVLVIYQDTKRPSGIPERFSGSNSGNTATLTISGTQAVDEADYYCQAWDSSTYVFGGGTKVTVL | 0.3 | 41.8 ratio of ELISA signal on target to background (streptavidin) | – | –
M162-A04 (Fab, V domains shown, Non-germlined Fab discovered using phage display; Printed HC runs from VH into the start of CH1; also called M162-A4; 559A-M162-A4) VH: EVQLLESGGGLVQPGGSLRLSCAASGFTFSHYIMMWVRQAPGKGLEWVSGIYSSGGITVYADSVKGRFTISRDNSKNTLYLQMNSLRAEDTAVYYCAYRRTGIPRRDAFDIWGQGTMVTVSS VL: DIQMTQSPSTLSASVGDRVTITCRASQSISSWLAWYQQKPGKAPNLLIYKASTLESGVPSRFSGSGSGTEFTLTISSLQPDDFATYYCQQYNTYWTFGQGTKVEIK | 4.8 | 11.4 ratio of ELISA signal on target to background (streptavidin) | – | –
M208-F10 (Fab, V domains shown, Tested as Fab; printed HC runs into CH1; amber q written Q) VH: EVQLLESGGGLVQPGGSLRLSCAASGFTFSHYLMTWVRQAPGKGLEWVSYISPSGGHTIYADSVKGRFTISRDNSKNTLYLQMNSLRAEDTAVYYCARVARGIAARSRTSYFDQWGQGTLVTVSS VL: DIQMTQSPGTLSLSPGERATLSCRTSQFVNSNYLAWYQQTPGQAPRLLIYGASSRATGIPDRFSGTGYGTDFTLTISRLEPEDYGTYYCQQSSRTPWTFGQGTRVEIK | – | – | 92.5 | 0.2
M160-G12 (Fab, V domains shown, Printed HC runs from VH into the start of CH1; also called R84-D02 (as IgG)) VH: EVQLLESGGGLVQPGGSLRLSCAASGFTFSHYLMTWVRQAPGKGLEWVSYISPSGGHTIYADSVKGRFTISRDNSKNTLYLQMNSLRAEDTAVYYCARVARGIAARSRTSYFDYWGQGTLVTVSS VL: DIQMTQSPSFLSASVGDRVTITCRASQGISSYLAWYQQKPGKAPKLLIYAASTLQSGVPSRFSGSGSGTEFTLTISSLQPEDFATYYCQQLNSYPLTFGGGTKVEIK | 17 | 38.3 ratio of ELISA signal on target to background (streptavidin) | – | –
M208-C06 (Fab, V domains shown, Tested as Fab; printed HC runs into CH1) VH: EVQLLESGGGLVQPGGSLRLSCAASGFTFSHYLMTWVRQAPGKGLEWVSYISPSGGHTIYADSVKGRFTISRDNSKNTLYLQMNSLRAEDTAVYYCARVARGIAARSRTSFIDYWGQGTLVTVSS VL: DIQMTQSPGTLSLSPGERATLSCRTSQFVNSNYLAWYQQTPGQAPRLLIYGASSRATGIPDRFSGTGYGTDFTLTISRLEPEDYGTYYCQQSSRTPWTFGQGTRVEIK | – | – | 91.7 | 0.4
M205-D04 (Fab, V domains shown, Tested as Fab; printed HC runs into CH1; amber q written Q) VH: EVQLLESGGGLVQPGGSLRLSCAASGFTFSTYKMQWVRQAPGKGLEWVSSISPSGGPTNYADSVKGRFTISRDNSKNTLYLQMNSLRAEDTAVYYCARVARGIAARSRTSYFDYWGQGTLVTVSS VL: DIQMTQSPGTLSLSPGERATLSCRTSQFVNSNYLAWYQQTPGQAPRLLIYGASSRATGIPDRFSGTGYGTDFTLTISRLEPEDYGTYYCQQSSRTPWTFGQGTRVEIK | – | – | 91.5 | 0.4
M206-H08 (Fab, V domains shown, Tested as Fab; printed HC runs into CH1) VH: EVQLLESGGGLVQPGGSLRLSCAASGFTFSDYMMAWVRQAPGKGLEWVSSIVPSGGHTHYADSVKGRFTISRDNSKNTLYLQMNSLRAEDTAVYYCARVARGIAARSRTSYFDYWGQGTLVTVSS VL: DIQMTQSPGTLSLSPGERATLSCRTSQFVNSNYLAWYQQTPGQAPRLLIYGASSRATGIPDRFSGTGYGTDFTLTISRLEPEDYGTYYCQQSSRTPWTFGQGTRVEIK | – | – | 96 | 0.17
M208-E10 (Fab, V domains shown, Tested as Fab; printed HC runs into CH1) VH: EVQLLESGGGLVQPGGSLRLSCAASGFTFSHYLMTWVRQAPGKGLEWVSYISPSGGHTIYADSVKGRFTISRDNSKNTLYLQMNSLRAEDTAVYYCARVAQGISARSRTSYFDYWGQGTLVTVSS VL: DIQMTQSPGTLSLSPGERATLSCRTSQFVNSNYLAWYQQTPGQAPRLLIYGASSRATGIPDRFSGTGYGTDFTLTISRLEPEDYGTYYCQQSSRTPWTFGQGTRVEIK | – | – | 93.7 | 0.09
M206-F01 (Fab, V domains shown, Tested as Fab; printed HC runs into CH1) VH: EVQLLESGGGLVQPGGSLRLSCAASGFTFSGYMMVWVRQAPGKGLEWVSRISPSGGPTIYADSVKGRFTISRDNSKNTLYLQMNSLRAEDTAVYYCARVARGIAARSRTSYFDYWGQGTLVTVSS VL: DIQMTQSPGTLSLSPGERATLSCRTSQFVNSNYLAWYQQTPGQAPRLLIYGASSRATGIPDRFSGTGYGTDFTLTISRLEPEDYGTYYCQQSSRTPWTFGQGTRVEIK | – | – | 92.6 | 0.2
M206-B10 (Fab, V domains shown, Tested as Fab; printed HC runs into CH1; amber q written Q) VH: EVQLLESGGGLVQPGGSLRLSCAASGFTFSQYLMAWVRQAPGKGLEWVSSIYPSGGWTKYADSVKGRFTISRDNSKNTLYLQMNSLRAEDTAVYYCARVARGIAARSRTSYFDYWGQGTLVTVSS VL: DIQMTQSPGTLSLSPGERATLSCRTSQFVNSNYLAWYQQTPGQAPRLLIYGASSRATGIPDRFSGTGYGTDFTLTISRLEPEDYGTYYCQQSSRTPWTFGQGTRVEIK | – | – | 94.7 | 0.3
M145-D01 (Fab, V domains shown, Printed HC runs from VH into the start of CH1) VH: EVQLLESGGGLVQPGGSLRLSCAASGFTFSYYHMSWVRQAPGKGLEWVSVISPSGGSTKYADSVKGRFTISRDNSKNTLYLQMNSLRAEDTAVYYCARGGSSDYAWGSYRRPYYFDYWGQGTLVTVSS VL: DIQMTQSPATLSLSPGERATLSCRASQSVSSYLAWYQQKPGQAPRLLIYDASNRATGIPARFSGSGSGTDFTLTISSLEPEDFAVYYCQQRSNWPRGFTFGPGTKVDIK | 1.1 | 6.2 ratio of ELISA signal on target to background (streptavidin) | – | –
M146-E12 (Fab, V domains shown, Printed HC runs from VH into the start of CH1) VH: EVQLLESGGGLVQPGGSLRLSCAASGFTFSRYIMHWVRQAPGKGLEWVSSISPSGGLTSYADSVKGRFTISRDNSKNTLYLQMNSLRAEDTAVYYCAREFENAYHYYYYGMDVWGQGTTVTVSS VL: DIQMTQSPSSLSASVGDRVTITCRASGDIGNALGWYQQKPGKAPRLLISDASTLQSGVPLRFSGSGSGTEFTLTISSLQPEDFATYYCLQGYNYPRTFGQGTKLEIR | 2.2 | 49.6 ratio of ELISA signal on target to background (streptavidin) | – | –
M152-A12 (Fab, V domains shown, Printed HC runs from VH into the start of CH1) VH: EVQLLESGGGLVQPGGSLRLSCAASGFTFSPYFMGWVRQAPGKGLEWVSGIGPSGGSTTYADSVKGRFTISRDNSKNTLYLQMNSLRAEDTAVYYCAREGPPYSSGWYRGLRQYHFDYWGQGTLVTVSS VL: DIQMTQSPSSLSASVGDRVTITCRASQSISSYLSWYQQRPGKAPNLLIYAASSLQSGVPSRFSGSGSGTDFTLTISSLQPEDFATYYCQQSISIPRTFGQGTKVEVK | < 100 | 19 ratio of ELISA signal on target to background (streptavidin) | – | –
M145-D11 (Fab, V domains shown, Printed HC runs from VH into the start of CH1; also called 559A-M145-D11; 559A-M0145-D11) VH: EVQLLESGGGLVQPGGSLRLSCAASGFTFSHYRMSWVRQAPGKGLEWVSSIYPSGGRTVYADSVKGRFTISRDNSKNTLYLQMNSLRAEDTAVYYCAKDKFEWRLLFRGIGNDAFDIWGQGTMVTVSS VL: QSVLTQPPSVSVSPGQTASITCSGDKLGDKYTSWYQQRPGQSPVLVIYQDIKRPSGIPERFSGSNSGNTATLTISGTQAMDEADYYCQAWDSPNARVFGSGTKVTVL | 0.79 | 40 ratio of ELISA signal on target to background (streptavidin) | – | –
